Measurements taken from US20100287629A1.

What was measured:
[1] = biological target: recombinant soluble human CD4 (human) (UniProt P01730); test: BIAcore; rCD4 coupled to chip, mAb flowed
[2] = biological target: recombinant soluble human CD4 (human) (UniProt P01730); test: SPR sensor chip; sCD4 amine-coupled, mAb flowed

Ka [1]: 3.7e+10 M⁻¹
koff [1]: 4.2e-06 s⁻¹
kon [1]: 150000 M⁻¹ s⁻¹
Ka [2]: 3.7e+10 M⁻¹
koff [2]: 4.2e-06 s⁻¹
kon [2]: 150000 M⁻¹ s⁻¹
Substance: Leu3a, mouse anti-human CD4 monoclonal antibody
